Assay results from FireProtDB (doi:10.1016/j.bpc.2005.09.016).
Where “and” joins values, the source holds several entries; their conditions need not be identical. Equal values may be shown once.

Conditions: Aspergillus oryzae (strain ATCC 42149 / RIB 40), 25 °C, CD, Glycine hydrochloride 0.05 M, reversible: Yes, whole UniProt chain shown

B1: Guanyl-specific ribonuclease T1 wild type, P00651 (protein)
chain: MMYSKLLTLTTLLLPTALALPSLVERACDYTCGSNCYSSSDVSTAQAAGYQLHEDGETVGSNSYPHKYNNYEGFDFSVSSPYYEWPILSSGDVYSGGSPGADRVVFNENNQLAGVITHTGASGNNFVECT
**Q.** What does the source list for B1?
**A.** denaturant m value (pH 3, Urea): 1.57 kcal/mol/M and 1.73 kcal/mol/M and 2.04 kcal/mol/M; denaturant midpoint (higher = more stable) (pH 3, Urea): 3.8 M and 3.2 M and 3.1 M; unfolding free energy (pH 3, Urea): 6.01 kcal/mol and 5.54 kcal/mol and 6.36 kcal/mol; denaturant midpoint (higher = more stable) (pH 5.5, GdnHCl): 4.3 M and 3.7 M; unfolding free energy (pH 5.5, GdnHCl): 9.29 kcal/mol and 9.48 kcal/mol and 9.37 kcal/mol; denaturant midpoint (higher = more stable) (pH 6, GdnHCl): 3.8 M and 3.7 M; unfolding free energy (pH 6, GdnHCl): 10.2 kcal/mol
